In article PMC10433817:

Tested on: ThserRS (seryl-tRNA synthetase, GME12055) (Trametes hirsuta AH28-2)
Test: fluorescence polarization
Conditions: 5 mM Mg2+; 25 mM HEPES pH 6.5, 5 mM MgCl2, 150 mM KCl, 1 mM DTT, 5% glycerol, 16 C, 30 min; probe 0.5 uM (EMSA) or 40 nM (FP); further truncations of the 32-bp probe gave …

lacA promoter 32-bp minimal probe (-462 to -431)
Kd: 0.92 µM
